Test results from paper PMC6388921, “An alkaline active feruloyl-CoA synthetase from soil metagenome as a potential key enzyme for lignin valorization strategies” (PLoS ONE, 2019).

Molecular target: the molecule itself
Assay: dynamic light scattering; FCS1 at 1 mg/mL in 20 mM Tris-HCl pH 7; hydrodynamic radius converted to mass assuming a spherical molecule

B1: feruloyl-CoA synthetase FCS1 (enzyme, UniProt A0A2P1BT06 1-707, looked up)
chain: MGERRFSNQQIDRLLRPKSVAVIGASDRKGALGATLLNNLVQYEFSGDIYPVNPKRDELLGLKVYHEVAELPEGIDCAVLAIPRPFVIDTVRQLAQRGCGAVVIYSAGFSEAGEEGMKDQLELAAIAAEYGMVIEGPNCLGCTNYVERVPLTFVETNMQTPPKGTRAVGIASQSGALAAVLATALHPRGLYVSSSVSTGNEAASGVEDYVEWLVDDEDTHVIAMYVESLRRPKAFIAAARRAHAAGKPIVMLHPGKSNKAQESAATHTGAMAGDYALMKTKLAREGVIFADTLEELADITEIALRCRALPGANMAVLGESGALRGLAFDIAEDIGLDLIHLDDDNSPALRAILPDFVPVSNPTDITALGLSEPEIYTKVLTALLEDERIGSVVASIIQSDPITSGIKFPHIIKVLDGGTFAKPLVFAGVDEGATVPKEYIDGLRKVGIPWFPSTERAYRAIARLADLSKRDLADNSGDPIVVPGLDAVSGVVPEYKAKELLRPLGIAFPPSQFAANAEAAAAAARAIGYPVVMKAQAAALGHKSDAGGVILNLKTDDEVRDAFARIYGNVEAYDRSIALDGVLIEKMGKMGTEMIVGAKNDPQWGPVVLAGFGGVTAEILKDVKLFTPEMDAAAVQRGLLELKQAPILKGYRGAPALDVAALAELIVQIGRVMAGNPSIREIDLNPVIIHPAGEGVAALDALMLVER
notes: feruloyl-CoA synthetase FCS1 from the metagenome of a lignin-degrading microbial consortium from sugarcane plantation soil; GenBank MG214406; codon-optimised, synthesised gene; predicted molecular mass 74.9 kDa; No tag cleavage is described
- stoichiometry N: 2
